# The Immune Epitope Database (IEDB)
# Tests used:
# HLA-A*32:07 = experiment: IEDB peptide-MHC binding, purified MHC/competitive/fluorescence; filed as Kd, often an IC50 or EC50 that approximates it; ≥ and ≤ were set here for values at or beyond the usual limits of such assays; conditions: source organism: Giardia lamblia ATCC 50803
# HLA-B*15:42 = experiment: as above; conditions: source organism: Giardia lamblia ATCC 50803
# HLA-B*45:06 = experiment: as above; conditions: source organism: Giardia lamblia ATCC 50803
# HLA-A*31:01 [1] = experiment: as above; conditions: source organism: Giardia lamblia ATCC 50803
# HLA-B*83:01 = experiment: as above; conditions: source organism: Giardia lamblia ATCC 50803
# HLA-A*03:01 [2] = experiment: IEDB peptide-MHC binding, purified MHC/direct/fluorescence; filed as Kd, often an IC50 or EC50 that approximates it; ≥ and ≤ were set here for values at or beyond the usual limits of such assays
# HLA-A*02:01 [3] = experiment: IEDB peptide-MHC binding, purified MHC/competitive/radioactivity; ≥ and ≤ were set here for values at or beyond the usual limits of such assays
# HLA-A*26:02 [4] = experiment: IEDB peptide-MHC binding, purified MHC/competitive/fluorescence; filed as Kd, often an IC50 or EC50 that approximates it; ≥ and ≤ were set here for values at or beyond the usual limits of such assays; conditions: source organism: Campylobacter jejuni subsp. jejuni NCTC 11168 = ATCC 700819
# HLA-A*68:02 = experiment: IEDB peptide-MHC binding, purified MHC/direct/fluorescence; filed as Kd, often an IC50 or EC50 that approximates it; ≥ and ≤ were set here for values at or beyond the usual limits of such assays
# HLA-B*58:01 = experiment: as above
# HLA-A*23:01 = experiment: as above
# HLA-A*24:02 = experiment: as above
# HLA-B*39:01 = experiment: as above
# HLA-B*07:02 = experiment: as above
# HLA-A*69:01 = experiment: as above
# HLA-B*27:05 = experiment: as above
# HLA-B*15:17 [5] = experiment: as above; conditions: source organism: Campylobacter jejuni
# HLA-A*26:03 = experiment: as above; conditions: source organism: Campylobacter jejuni subsp. jejuni CG8486
# HLA-B*18:01 = experiment: as above
# HLA-A*11:01 [6] = experiment: as above
# HLA-B*57:01 = experiment: as above
# HLA-A*31:01 [7] = experiment: as above
# HLA-A*01:01 [8] = experiment: as above
# HLA-A*02:01 [9] = experiment: as above
# HLA-B*15:01 = experiment: as above
# HLA-A*24:03 = experiment: as above
# HLA-B*15:09 = experiment: as above; conditions: source organism: Campylobacter jejuni subsp. jejuni CG8486
# HLA-C*03:03 = experiment: as above; conditions: source organism: Listeria monocytogenes EGD-e
# HLA-C*08:02 = experiment: as above
# HLA-A*03:01 [10] = experiment: IEDB peptide-MHC binding, purified MHC/competitive/fluorescence; filed as Kd, often an IC50 or EC50 that approximates it; ≥ and ≤ were set here for values at or beyond the usual limits of such assays; conditions: source organism: Yersinia pestis Antiqua
# HLA-B*35:01 [11] = experiment: as above; conditions: source organism: Yersinia pestis Antiqua
# HLA-A*01:01 [12] = experiment: as above; conditions: source organism: Yersinia pestis Antiqua
# HLA-B*40:01 = experiment: IEDB peptide-MHC binding, purified MHC/direct/fluorescence; filed as Kd, often an IC50 or EC50 that approximates it; ≥ and ≤ were set here for values at or beyond the usual limits of such assays; conditions: source organism: Escherichia coli O157:H7
# HLA-B*35:01 [13] = experiment: as above
# HLA-A*26:01 = experiment: as above
# HLA-B*08:01 = experiment: as above; conditions: source organism: Escherichia coli O157:H7
# HLA-B*44:02 = experiment: as above; conditions: source organism: Escherichia coli O157:H7
# HLA-B*15:17 [14] = experiment: IEDB peptide-MHC binding, purified MHC/competitive/fluorescence; filed as Kd, often an IC50 or EC50 that approximates it; ≥ and ≤ were set here for values at or beyond the usual limits of such assays; conditions: source organism: Vibrio vulnificus YJ016
# HLA-A*11:01 [15] = experiment: as above; conditions: source organism: Vibrio vulnificus YJ016
# HLA-A*26:02 [16] = experiment: IEDB peptide-MHC binding, purified MHC/direct/fluorescence; filed as Kd, often an IC50 or EC50 that approximates it; ≥ and ≤ were set here for values at or beyond the usual limits of such assays; conditions: source organism: Vibrio vulnificus CMCP6
# [17] = source organism: Campylobacter jejuni
# [18] = source organism: Escherichia coli O157:H7
# [19] = source organism: Salmonella enterica subsp. enterica serovar Typhimurium
# [20] = source organism: Vibrio vulnificus
# [21] = source organism: Vibrio vulnificus CMCP6
# [22] = source organism: Escherichia coli
sequence,measurement,setting,value
RLYPFGSYY,Kd,HLA-A*32:07,0.0041 µM
same,Kd,HLA-B*15:42,≥ 5 µM
same,Kd,HLA-B*45:06,≥ 5 µM
same,Kd,HLA-A*31:01 [1],0.0313 µM
same,Kd,HLA-B*83:01,≥ 5 µM
same,Kd,HLA-A*03:01 [2]; source organism: Giardia lamblia ATCC 50803,≤ 0.001 µM
TVLEYLVSFGV,IC50,HLA-A*02:01 [3]; source organism: Hepatitis B virus,0.294 µM
WFGHLASDW,Kd,HLA-A*26:02 [4],≥ 20 µM
same,Kd,HLA-A*68:02; [17],≥ 20 µM
same,Kd,HLA-B*58:01; [17],13 µM
same,Kd,HLA-A*23:01; [17],0.34 µM
same,Kd,HLA-A*03:01 [2]; [17],≥ 20 µM
same,Kd,HLA-A*24:02; [17],1.6 µM
same,Kd,HLA-B*39:01; source organism: Campylobacter jejuni subsp. jejuni CG8486,≥ 20 µM
same,Kd,HLA-B*07:02; [17],≥ 20 µM
same,Kd,HLA-A*69:01; [17],≥ 20 µM
same,Kd,HLA-B*27:05; [17],≥ 20 µM
same,Kd,HLA-B*15:17 [5],≥ 20 µM
same,Kd,HLA-A*26:03,≥ 20 µM
same,Kd,HLA-B*18:01; [17],≥ 20 µM
same,Kd,HLA-A*11:01 [6]; [17],≥ 20 µM
same,Kd,HLA-B*57:01; [17],≥ 20 µM
same,Kd,HLA-A*31:01 [7]; [17],≥ 20 µM
same,Kd,HLA-A*01:01 [8]; [17],≥ 20 µM
same,Kd,HLA-A*02:01 [9]; [17],≥ 20 µM
same,Kd,HLA-B*15:01; [17],7 µM
same,Kd,HLA-A*24:03; [17],0.0215 µM
same,Kd,HLA-B*15:09,≥ 20 µM
FLPDKAIDL,Kd,HLA-C*03:03,0.02 µM
same,Kd,HLA-A*69:01; source organism: Bacillus anthracis,17 µM
same,Kd,HLA-C*08:02; source organism: Listeria monocytogenes EGD-e,0.047 µM
FVADSTPLY,Kd,HLA-A*03:01 [10],≥ 20 µM
same,Kd,HLA-B*35:01 [11],≤ 0.0001 µM
same,Kd,HLA-A*01:01 [12],0.0018 µM
same,Kd,HLA-C*08:02; source organism: Yersinia pestis Antiqua,≥ 20 µM
ATISYRIKL,Kd,HLA-B*58:01; [18],≥ 20 µM
same,Kd,HLA-A*03:01 [2]; [18],≥ 20 µM
same,Kd,HLA-B*07:02; [18],≥ 20 µM
same,Kd,HLA-B*40:01,≥ 20 µM
same,Kd,HLA-A*69:01; [19],0.0558 µM
same,Kd,HLA-B*27:05; [18],≥ 20 µM
same,Kd,HLA-B*35:01 [13]; [19],0.542 µM
same,Kd,HLA-A*11:01 [6]; [19],0.0546 µM
same,Kd,HLA-A*26:01; [19],2.64 µM
same,Kd,HLA-A*31:01 [7]; [18],≥ 20 µM
same,Kd,HLA-A*01:01 [8]; [18],≥ 20 µM
same,Kd,HLA-B*08:01,≥ 20 µM
same,Kd,HLA-B*44:02,≥ 20 µM
same,Kd,HLA-A*02:01 [9]; [19],0.106 µM
same,Kd,HLA-B*15:01; [18],≥ 20 µM
RTFSPTYGL,IC50,HLA-A*02:01 [3]; source organism: Homo sapiens,0.408 µM
DISPTNIPL,Kd,HLA-B*58:01; [18],≥ 20 µM
same,Kd,HLA-A*03:01 [2]; [18],≥ 20 µM
same,Kd,HLA-B*07:02; [18],≥ 20 µM
same,Kd,HLA-B*40:01,≥ 20 µM
same,Kd,HLA-A*69:01; [18],0.0148 µM
same,Kd,HLA-B*27:05; [18],≥ 20 µM
same,Kd,HLA-B*35:01 [13]; [18],0.105 µM
same,Kd,HLA-A*11:01 [6]; [18],≥ 20 µM
same,Kd,HLA-A*26:01; [18],6.55 µM
same,Kd,HLA-A*31:01 [7]; [18],≥ 20 µM
same,Kd,HLA-A*01:01 [8]; [18],≥ 20 µM
same,Kd,HLA-B*08:01,≥ 20 µM
same,Kd,HLA-B*44:02,≥ 20 µM
same,Kd,HLA-A*02:01 [9]; [18],≥ 20 µM
same,Kd,HLA-B*15:01; [18],≥ 20 µM
PHPVVVRTL,Kd,HLA-B*15:17 [14],≥ 20 µM
same,Kd,HLA-A*11:01 [15],≥ 20 µM
same,Kd,HLA-A*68:02; [20],≥ 20 µM
same,Kd,HLA-B*58:01; [20],≥ 20 µM
same,Kd,HLA-A*23:01; [20],≥ 20 µM
same,Kd,HLA-A*03:01 [2]; [20],≥ 20 µM
same,Kd,HLA-A*24:02; [20],18 µM
same,Kd,HLA-B*39:01; [21],≥ 20 µM
same,Kd,HLA-B*07:02; [20],≥ 20 µM
same,Kd,HLA-A*69:01; [20],≥ 20 µM
same,Kd,HLA-A*26:02 [16],≥ 20 µM
same,Kd,HLA-B*27:05; [20],≥ 20 µM
same,Kd,HLA-B*18:01; [20],≥ 20 µM
same,Kd,HLA-B*57:01; [20],≥ 20 µM
same,Kd,HLA-A*26:01; [21],≥ 20 µM
same,Kd,HLA-A*31:01 [7]; [20],≥ 20 µM
same,Kd,HLA-A*01:01 [8]; [20],≥ 20 µM
same,Kd,HLA-A*02:01 [9]; [20],≥ 20 µM
same,Kd,HLA-B*15:01; [20],0.775 µM
same,Kd,HLA-A*24:03; [20],≥ 20 µM
DPRDDLSGM,Kd,HLA-B*58:01; [18],≥ 20 µM
same,Kd,HLA-A*03:01 [2]; [18],≥ 20 µM
same,Kd,HLA-B*07:02; [22],7.81 µM
same,Kd,HLA-B*40:01,≥ 20 µM
same,Kd,HLA-A*69:01; [18],≥ 20 µM
same,Kd,HLA-B*27:05; [18],≥ 20 µM
same,Kd,HLA-B*35:01 [13]; [22],0.0994 µM
same,Kd,HLA-A*11:01 [6]; [18],≥ 20 µM
same,Kd,HLA-A*26:01; [18],≥ 20 µM
same,Kd,HLA-A*31:01 [7]; [18],≥ 20 µM
same,Kd,HLA-A*01:01 [8]; [18],≥ 20 µM
same,Kd,HLA-B*08:01,≥ 20 µM
same,Kd,HLA-B*44:02,≥ 20 µM
same,Kd,HLA-A*02:01 [9]; [18],≥ 20 µM
same,Kd,HLA-B*15:01; [18],≥ 20 µM
same,Kd,HLA-A*24:03; [22],≥ 20 µM
DLNTSAGFPYV,IC50,HLA-A*02:01 [3]; source organism: Rhinovirus C,0.5 µM
